In general, Km refers to the substrate concentration at which the rate is half of its maximum.

Our source for the Km values is publication PMC12136491, “Establishment of an efficient one-step enzymatic synthesis of cyclic-2,3-diphosphoglycerate” (Frontiers in Microbiology, 2025).

Substrate in data set [1]: O=C(O)[C@@H](COP(=O)(O)O)OP(=O)(O)O
Briefly: purified protein. Format: biochemical, Methanothermus fervidus. The following applies: 10 mM ATP constant, Mg2+/ATP molar ratio 0.5, 50 mM MES/KOH pH 6.5, 400 mM KCl, 55°C, two-substrate Michaelis-Menten fit.

Substrate in data set [2]: Nc1ncnc2c1ncn2[C@@H]1O[C@H](COP(=O)(O)OP(=O)(O)OP(=O)(O)O)[C@@H](O)[C@H]1O
In words: purified protein. The data set is classed as biochemical, Methanothermus fervidus. The note with it: 10 mM 2,3DPG constant, Mg2+/ATP molar ratio 0.5, 50 mM MES/KOH pH 6.5, 400 mM KCl, 55°C, two-substrate Michaelis-Menten fit.

B1: MfcDPGS (cyclic-2,3-diphosphoglycerate synthetase) (Methanothermus fervidus DSM 2088) (protein)
chain: GETKKMICLVDGEHYFPVVKDSIEILDDLEHIDVVAVVFIGGTEKLQIEDPKEYSEKLGKPVFFGPDPKKIPYDVIKKCVKKYNADIVMDLSDEPVVDYTKRFRIASIVLKEGAVYQGADFKFEPLTEYDVLEKPSIKIIGTGKRIGKTAVSAYAARVIHKHKYNPCVVAMGRGGPREPEIVEGNKIEITAEYLLEQADKGVHAASDHWEDALMSRILTVGCRRCGGGMLGDTFITNVKRGAEIANKLDSDFVIMEGSGAAIPPVKTNRQIVTVGANQPMININNFFGPFRIGLADLVIITMCEEPMATTEKIKKVEKFIKEINPSANVIPTVFRPKPVGNVEGKKVLFATTAPKVVVGKLVNYLESKYGCDVVGVTPHLSNRPLLRRDLKKYINKADLMLTELKAAAVDVATRVAIEAGLDVVYCDNIPVVIDESYGNIDDAIIEVVEMAIDDFKNNR
notes: heat precipitation and SEC; homodimer (119 kDa)
For B1, the Km in data set [1] is recorded as 1.52 ± 0.4 mM; in data set [2], 0.55 ± 0.08 mM.
